Experiment: yeast display, Sf9 membrane polyspecificity reagent, FACS + sequencing; frameworks hold sequencing errors
In short: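 Nanobodies from a synthetic yeast display library (Saccharomyces cerevisiae BJ5465), induced 36–48 hours with galactose, were stained 1 hour at 4 °C with 10% biotinylated, detergent-solubilized Sf9 membrane reagent, enriched on streptavidin microbeads, then FACS-sorted. Anti-HA (expression) and streptavidin (reagent binding) fluorescence set low and high (top ~1%) gates. Polyreactivity labels come from the gate of origin. Genes were colony-PCR amplified, MiSeq 2 × 250 sequenced and filtered by CDR length.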

Sequence	polyreactivity (PSR sort gate)
QVQLVESGGGLVQAGGSLRLSCDASGRTFVVNAMGWYRQAPGKERELVAAITRRGGITYYADSVKGRFTISRDNAKNTVYLQMNSLKPEDTAVYYCAADRSYYPDTRTTYGYNYWGQGTQVTVSS	low polyreactivity
QVQLVESGGGLVQAGGSLRLSCAASGRTFPYYAMGWYRQATGKERELVAAITTNDGDTYYADSVKGRFTISRDNAKNTVYLQMNSLKPEDTAVYYCSADSGSTSEYEYWGQGTQVTVSS	low polyreactivity
QVQLVESGGGLVQAGGSLRLSCAASGYIFVFNTMGWYRQAPGKERELVASISWDAGTTYYADSVKGRFTISRDNAKNTVYLQMNSLKPEDTAVDYCNAGRIRSGYLDYWGQGTQVTVSS	low polyreactivity
QVQLVESGGGLVQAGGSLRLSCAASGSILRRYAMGWYRQAPWKERELVAAITSSGGGTYYADSVKGRFTISRDNAKNTVYLQMKSLKPEVTAVYYCAAEYGWLYEYDYWGQGTQVTVSS	high polyreactivity
QVQLVESGGGLVQAGGSLRLSCAASGSIFARYAMGWYRQAPGKERELVAALSGSGASTYYADSVKGRFTISRDNAKNTVYLQMNSLKPEDTAVYYCARPFLRRPTYRFETGYGYWGQGTQVTVSS	high polyreactivity
QVQLVESGGGLGQAGGSLRLSCAASGSIFYRYAMGWYRQAPGKERELVAAISSTGSTYYADSVKGRFTISRDHAKNTVYLEMNSLTPEDTAVYYGAARQGYRSYRRYDYWGQGTQVTVSS	high polyreactivity
QVQLVESGGGLVQAGGSLRLSCAASGFIFYSYAMGWYRQAPGKERELVAAITSSGGNTYYADSVKGRFTISRDNAKNTGYLQMNSLKPEDTAVYYCNRDRKRGYPYQPYDYWGQGTQVTVSS	high polyreactivity
QVQHEESGVGLVQAGGRLRVSCAASGSTFAANTMGWYRTAPGKERELVAAITVRGGSTYYADSVKGRFSISRDNAKNTVYLQMISLKPEDTAVYYCAAERPPYGYLVVGFVSTQYYYWGQGTQVTVSS	low polyreactivity
QVQLVESGGGLVQAGGSLRFSCAASGSIFRLYAMGWYRLAPGKDRELVATLTSGGNTYADSVKGRFTISRENAKNTVYLQMNSLKPEDTAVYYCHAGQYGYYYKGYDYWGQGTQVTVSS	high polyreactivity
QVQLVESGGGLVQAGGSLRLSCADSGSTFWYYVMGWYRQAPGKERELVAVINTRGGSTYYADSVKGRFTISRDNAKNTVYLQMNSLKPEDTAVYYCNARKVKRGKYNYWGQGTQVTVSS	high polyreactivity
QVQLVESGGGLDQAGGSLRLSCAGSGSIFTSYAMGWDIQAPGKERELVAAISQSGGDTYYADSVKGRFTISRDNAKNTVYLQMNSLKPEDTAVYYCAASVWYYPMDYWGQGTQVTVSS	low polyreactivity
QVQLVESGGGLVQAGGSLRLSCAASGRIFSRYAMGWYRQAPGKERELVAGITRSGTTTYYADSVKGRFTISRDNAKNTVYLQMNSLKPEDTAVYYCAAPPIRPNLYDYWGQGTQVTVSS	high polyreactivity
QVQLVESGGGLVQAGGSLRLSCAAYGRTFRTNAMGWYRQAPGKERELVAAISTGGGITNYADSVKGRFTISRDNAKNTVYLQMNSLKPEDTAVYYCNADIYTWFQIGGYQYDYWGQGTQVTVSS	low polyreactivity
QVQLVESGGGLVQAGGSLRLSCAASGITYRWKAMGWYRQAPGKERELVAAITTRGGGTYYAVSVKGRFTISRDNAKNTVYLQMISLKPEDTAVYYCAAKKSRYPYNYWGQGTQVTVSS	high polyreactivity
QVQLVESGGGLVQAGGSLRLSCAASGSIFSFYAMVWYRQAPGKERELVADISLTTDSTYADSVKGRFTISRDNAKNTVYLQMNSLKPEDTAVYYCAADFFGTITWYDYWGQGTQVTVSS	low polyreactivity
QVQLVESGGGLVQAGGSLRLSCASSGRIFNGNTMGWYRQAPGKERELVAGITGSSGSTYYADSVKGRFTISRDNANNSVYLPMNSLKPEDTGVYYCAAGRRYRCVGYGYWGQGTQVTVSS	high polyreactivity
QVQLVESGGGLVQAGGSLRLSCAASGRTFYVYNMGCYRQAPGKERELVAGISYSGGSTYYADSVKGRFTISRDNAKNTVYLQMNSLKPEDTAVYYSNAELYFPYFDGKTRLGGYWGLGTQVTVSS	low polyreactivity
QVQLVESGGGLVQARGSLRLSCAASVIIFRLYGRGWYRQAPGKEREFVATITWRGGRTNYADSVKGRFTISRDNAKNTVYLQMNSLKPEDTAVYYCAKVVRYARSNEYDSWGQGTQVTVSS	low polyreactivity
QVQLVESGGGLVQAGGSLRLSCAASGRIFWDYAMGWYRKAPGKERELVAVITFSGDSTYYADSVKGRFTISRDNAKNTVYLQMNSLKPEDTAVYYCAAARAIRQFWYVATFEYWGQGTQVTVSS	low polyreactivity
QVQLVESGGGLVQAGGSLRLSCAASGRIFRGYAMGWYRPAPGKERELVAAINWSGGSTDYADSVKGRFTISRDYAKNTVYLQMNSLKPEDTAVYYCSTSTCRGYSWGHGTQVTVSS	high polyreactivity
QVQLVESGGGVVQAGGSLRLSCAASGLIFAYAMGWYSPAPGKERELVAVISWSGGSTYYADSVKGRFTISRDNAKNTVYLQMNSLKPEDTAVYYCAADYFGNWQLAGGYWGQGTQVTVSS	low polyreactivity
QVQLVESGGGLVQAGGSLRLSCAASGSILSLYTMGWYRQAPGKERELVARISRSGGSTYYADSVKGRFTISRDNAKNTVYLQMNSLKTEDTAVYYCAARPYVVIYYGKSRGYYWGQGTQVTVSS	high polyreactivity

Sequence	polyreactivity (PSR sort gate)
QVQLVESGGGLVQAGGSLRLSCAASGSIFKYYSMGWYRQAPGKERELVAAITIGGNTNYADSVKGRFTISRDNAKNTVYLQLNSLKPEDTAVYYCATGGYYSAIVYGGYDYWGQGTQVTVSS	low polyreactivity
QVQLVESGGGLVQAGGSLRLICAASGRIFKYNAMGWDRQAPGTERELVAAISSSGGSTYYADSVKGRFTISRDNAKYTVYLLMNSLKPEDTAVYYCAARFNSGVYRYDYWGQGTQVTVSS	high polyreactivity
QVQLVESGGGLVQAGGSLRLSCAASGRTYPAYAMGWYRQAPGKERELVAAITYDGGTTYYADSVKVRFTISRDNAKNTVYLQMNSLKPEDTAVYYSAAVYDEDQYDYWGQGTQVTVSS	low polyreactivity
QVQLVESGGGLVQAGGSLRLSCAASGSIFNQYAMGWHRQAPGKERELVAAISSDGGRTYYADSVKGRFTISRDNAKNTVYLQMNSLNPEDTAVYYCNKDVRPAYRWYDYWGQDTQVTVSS	low polyreactivity
QVQLVESGAGLVQAGGSLRLSCAASGSIFRVYAMGWYRQAPGKERELVAAISQSADSTYYADSVKGRFTILRDNAKYTVYLQMNSLKPEDTAVYYCAAEYPYIYRFDYWGQGTQVTVSS	low polyreactivity
QVQLVESGGGLVQAGGSLRLSCAASGRIFQGYAMGWYRQAPGKERELDAAITVRGGTTYYADSVKGRFTISRDNAKNTVYLQMNRRKPEDTAVYYCNAAKLIHCYQYVYPASNSRYYYWGQGTQVTVSS	low polyreactivity
QVQHVESGGGLVQAGGSLRLSCAASGFTFYGNALGWYRQAPGKERELVAAITSGGSTYYADSVKGRFTISRDNAKNTVYLQMNSLKPDDTAVYYCAADEVLYGYEYWGQGTQVTVSS	low polyreactivity
QVQLVESGGGLDQAGGSLRLTCAASGFTFTIYAMGWYRQAPGKERELVATISGRAGRTYYADSVMGRFTISRDNAKNTVSLQMTSLKPEDTAVYYCNAGQWRYPGLYYYWGQGTQVNVSS	high polyreactivity
QVQHVESGVGLVQAGGSLRLSCAASGSTFSWYTMGWYRQAPGKERELVAAISWSGGRTYYADSVKGRFTISRDNAKNTVYLQMNSLKPEDTAVYYCAAYDYWYSLGDYQFYYWGQGTQVTVSS	low polyreactivity
QVQLVESGGGLVQAGGSLRLSCAASGNIFYRNAIGWYRQAPGKERELVAAIRGGGSTNYADSVKGRFTISRDNAKNTVYLQMNSLKPEDTAVYYCNTVRSPPGHDYWGQGTQVTVSS	low polyreactivity
QVQLVESGGGLVQAGGSLRLSCAASGRSFTGNAMGWYRQAPGKERELVAAISWRGARTYYADSVKGRFTISRDNAKNTVYFQMNSLKPVDTGVYYCAAAYRGYARHDYWGQGTQVTVSS	high polyreactivity
QVQLVESGGGLVQAGGSLRLICAASGFTFRGYAMGWYRQAPGKERELVAAIRRGVITNYADSVNGRFTISRDNAKNTVYLQMNSLKPEDTAVYYCAAGNITPYRYYHGYYQSIYDYWGQGTIVTVSS	low polyreactivity
QVQLVESGGGLVQAGGSLRLSCAASGRTFVLYAMGWYRQAPGKERELVAAITSGGSTNYADSVKGRFTISRDNAKNTVYLQMNSLKPEDTAVYDCAAVPVRYRYSYGYYYWGQGTQVTVSS	high polyreactivity
QVQLVESGGGLVQAGCILRLSCASSGIIFSYAMGWYRQAPGKESELVAAISGRDGSTYYADSVKGRFTISRDNAKNTVYLQMNSLKPEDTAVYYCAKRISYLPVEMDYWGHGTQVTVSS	low polyreactivity
QVQLVESGGGLVQAGGSLRLSCAASGSTFIVYAMGWYRQAPGKERELVAAITASGGSTYADSVKGRFTISRDNAKNTVYLQMNSLKPEDTAVYYCAARRWSRKYRKYDYWGQGTQVTVSS	high polyreactivity
QVQLVESGGGVVQAGGSLGLSCAASGGIFAPYPMGWNRQAPGKERELAAAISSSDGSTYYADSVKGRFTISRDNAKNTVYLQMNSLKTEDTAVYYCAADYREDYGYWGQGTQVTVSS	low polyreactivity
QLQLEESGGGLVQAGGSLRLSCAPSGSILNIYAMGWYRQAPGKERELVAVITSGTNTNYAVSVKGRFTISRDNAKNTVYLQMNSRKPEDTAVYYCNDEKYWWGYEYWGQGTQVTVSS	high polyreactivity
QVHLVESGGGLVQAGGSLRLSCDASGSIFNTYAMGWYRQAPGKESELVATITSGDRTYYADSVNGRFTISRDNAKNSVYLQMNSLNPEDTAVYYCAKRHWFQYRRPDLGRFDYWGQGTQVTVSS	high polyreactivity
QVQLVESGGGLVQAGGSLRLSCAASGSTFLRYAMGWYRQAPGKERELVAAISVSGGSTYYADSVKGRFTISRDNAKNTVYLQMNCLKPEDTAVYYCAAVYKRLQPYGYWGQGTQVTVSS	high polyreactivity
QVQLVESGGGLVQAGGSLRLSCAASGSTIEPYAMGWYRQAPGKEREFVAVITLSGGTTYYADSVKGRFTISRDNAKNTVYLQMHSLKPEDTAVYYCNAQYRKARVDEYYYWGQGTQVTVSS	high polyreactivity
QVQLVESGGGLVQAGGSLRLSCAASGSIFTVYAMGWYRQAPGKERELVAAITRNGGRTYYADSVKGRFTISRDNAKNTVYLQMNSLKPEDTAVYYCAAPGLYSRLDYWGQGTQVTVSS	high polyreactivity

— the nanobody polyreactivity screen of Harvey et al. (2022)
